These results are taken from the NTF2 design screens of Basanta et al. (2020).

This data set is described as follows: protease stability score; higher = more stable; yeast display proteolysis, trypsin and chymotrypsin.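 Note: relative to predicted unfolded state with 0 unfolded-like and 1 meaning tenfold more protease.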
For “SEEEKRADEFNRRWVHKMQTGDEESLHELIDPNAKLHFEGHDEVGMQRVSHTIVKFFLEIRVHYIHITDARVYDGRLELDTRVDGEFNGKRDTLKIELYVLKVNGVWLLKELRVS”, the protease stability score is 1.

Sequence “DDEEKEHLEMLKQFWENSYTGDERTLLHLLDPHARFILEFNGKSLQYHGREEVARFLRWLLEHIRVKDSHIHDIDVIGEKAVVDGRMHGEIDGREVEKETRLFIVVIDGRITKVFIEVR” gave a protease stability score of 1.6. Next, “SEEERDLREALEEHKRTLQTGDEELWNKLFDPHARSDINGVEFHGMEDISRHIYKFFIDFGFKHVRFKHVELYGDKLVMRGSLNINGVDLDIEIISRKIDGRWLIHHWIIR”: 0.859; “SELEEEALHLMELYLKSVMTGDEESIRRLADPNVRFEVDINGKKLELHGWKEETKFWREIWVRELRVRDKDAIGNKVHSVVEINVDVNGKEIRRESEEHYIIVDGRLHIISFRVN”: 1.27. With “SEDEEYVKELADLFKELWETGDEETFMKLVDPNVRSDVNGKRVHGREEIRRVWHEVIRTLGIKYSHLRDMRIIGNKVVLDIELRVGDKRIELKVILIIVNGRMHYVELRLNEI”, the protease stability score amounted to 1.89. In the case of “DETHEMNEEFLRLLIHAWRTGDEDLLLHLADPNVKVNVGEFHHHGREKFSEWLKHIRFDDMRVHDMRIFDGVAHFITESDVTFNGRRRRVHVRIVVEKVNGKWRLKLFEEE”, the protease stability score turned out to be 2.66. As for “DDIEKDIREVLDILIRAFQTGDEDKILELFDPHARVDVGEYHNHGWERVEEWMHRVDHIDVRRLEIKHFHHINGRIVLHTHFDGILTINGREIHTETEVHIILVKINGKWYFKEISHH”, the protease stability score came out at 2.12. “DDSRRVAEEVSELIKILYDTGDWRHLHELLDPHVRIEIGDKEFHGRDTWLREMIRADHVEYHTHDYRSQGNKIFIRGHLIVHINGRTHKEDVRLHVHKVDGQWIIDSIEMK”: the protease stability score is 1.01.

In turn, “DKEEHDVHNMWQHLVEVLLTGNEEAIHENLDPDAKLEVGDKRYHGRELVSEVWSRLGINVIQLDDMRPIGNKVHVETTTHFNGKTLEMRIDAHKVNGRWLSESLIIR” came in with a protease stability score of 0.951. In turn, “DETEKHVKHLTELWMHAWLTGDEDLLEHLLDPHTRVIIFYGDKNYHFHGRESIHIRFYELGAKHVRDFRIRDSKIQGNKLLLNGEENGLVNGRQTETEVRIELVWIDGRVHSIVVRIH” registered a protease stability score of 1.3.

On to “DEHEELIMEFLRRLLEWHLTGDEEYISRNFDPNTQFDILIGDKRYHIHGREEIHEWLHEFLRELRVHIIVHEMRAQGDKAHNRGTLNLTYGDKRRTVDVHIFIVVVNGRYKKIIVQVK”, for which the protease stability score came to 1.62.

“SEDDEFYKHAFNLMIRVLETGDEELFTKMADPNVRSEINGQDIHGREMLSHIVLEEVRRADHIEFRIDHFRVIGDKVEHDGTKILNVNGVNIELRFHLHSVKVNGKWILKSERVD”: the protease stability score is 0.869.

On to “DEDHEIATKVLELWERLINTGDEEQMSRLADPNTKITIGEKDIVGREDIIKDMRHIRWKVKDFKIHDSSVIDGRIHLDGEMHVIFDVNGRRHERTIRMEIIVEKIDGRWVFKSIHIE”, for which the protease stability score was 1.3.

Sequence “DEDDRVAEHALRLLFELLRTGDWEHILEMFDPNMRLDFDGKKWHGRESFRELFTRFLEEIRIHDVKVEDFKVFDGRVEVDTRIRGKYGDKETKLETKIVALKINGRWVLESSHYN” showed a protease stability score of 0.898. Take “DEEKHSAEHFMRLWIESFETGDEESIKRLMDPHAKSDFNGVEMHGREYLEVIKREMRVKSSRLHVKHIDVIDGVVIIEGRMILDGEINGVRTRLESDVRFVVEKFDGRWILRSSSIK”: the protease stability score was determined as 1.31.

Turning to “DEDEELARKFIKKTSEARETGNEDDFMNLADPNVRQDINGVPIIGREEVSRIISHLRIRMEIRIRDVRIVGEKVELDVHIRMDIDFDGQRIHDKRDVHIILVKIDGKWLLHSVNHR”, the protease stability score turned out to be 0.536. Next, “HELDELTERTVKLFRDSSYTGDEDTLEDLADPNYRFVIDGKILMGREWVTRSLREWRVEDFRIHSVDLQGDKAHVDITVKGKFNGRFRTTRQEMVMMKVDGVWYFHSLTIR”: 0.521; “DQEEHEFYNVLRLFMFTLMTGDEHTLKKLLDPNARIEINGQERHGREEILHHMNRNLHEIRMKTLEVKRESVYGNYAHADTRLRGEVNGRESIVTVHIYIQVINGRIEHVHLDIK”: 1.45; “DEQEDRDMKKMYKNLQEGDDQRVADMADPNARWRVGDKTYHGKDSIRHWAKEVHDRMHFRIQSITVQNENGKVKVEIKWVTDENGKPVDQTVQVKAELHNGHIVDIDITTQS”: 0.098. Next, “DEDLSRNFHQFIEALKQNDTDRMKELIDPNARMRYGDKQLHGRENILNYWKKLNDQARVDLDLKSVRNDENHIRYNYKMRVHVNGRPVEDTATAEIRATNGRIVDIYIDFDPEKLRQIES”: 2.16; “NEERSHSEEVARLISHAWETGDEETLREQVDPHVKLVIGDKTFHGREEALTIIVQLRLRTVEIHDMKVVNGRLNLFTLWHIEIDGRRVLHHVVIHIEKIDGRWVMTEVRVH”: 2.1. As for “SDYERLFTIAVQLVIDVIQTGNFRELERLLDPNVRVDINGQEFVGREELVHWMHKVIRRADHLEITLRDVELQGDKLVLDMELVERYDGKEYRTRIRVFAHKINGQWYIRTFEVR”, the protease stability score worked out at 1.51. “DEEDERNLKLFHLAMLASITGNEELIEQLVDPDVRIEINGRDKHGRETLIKLLERFDHFQWHRFHWRRLEIQGNKIIMLLEVHGTIHIGEFKIKLQTDTISIVTKIDGRWTIKELYIK” came in with a protease stability score of 1.62.

“SEEEEFSHNLLNFMLHVIHTGDFDLLLDLMDPDTRVDINGKRHHGRDAMRIWVTLLGIERVETDVHHISIYGDKARIDGRVHYNGKTQRFEIHSRKIDGKWLNTEIKWD”: the protease stability score was 1.09.

Turning to “SEEEEHEKEVIKRIREAMLTGDEDTLRHLLDPNVRVNIDGVEIVGMEMILRHLREIRVSIKDLKVTHVRSVNGRVEADTRSHLIIIIGDKKYEEESETRFFILKIDGRWLLTTIEFK”, the protease stability score was 1.49. “DEDNREIKHAIHLLLTAFLTGNEDWLKELADPNVRILFNGRLFHGREHFLKFLLKFLRDYGIDHNHIQHSHLEIQGNFVHTHLHLEIDVNGRRQEFELRVISEKINGRWHLRELEVHIR” displayed a protease stability score of 2.43. Take “DEDKKELEEMFRILKEMWETGDWREESRMVDPHARVDINGVELHGREFIMEHIHRVKNMRFEIKRFDVVNGVLEIVGELHQGDKKHRVTIHALKFDGKWLQETVIIG”: the protease stability score was 1.6. Regarding “DEEEEYYRVAIEIWLRVMMTGDPKYFDRLADPHVRVEQGDKRLHGMEDWSKRLEHMRIDHINIHQFKVVNGKIHVDTEVRGDVDGVEFRTRMELIFEKVDGRWILRRIHIN”, the protease stability score came out at 2.71. In turn, “HEEEELERTILELVLHYLKTGDEHFMKNMADPNARSTIGDKDLHGREWMSEVWKRIKNVRIEIDRVDMINGVVHLHITVEYNGRRTHLTLHAEKVDGRWIIRELRVE” returned a protease stability score of 1.61. Next, “SEEEHRVKELARLFVEVLLTGDWKTLLELMDPNTRLRINGKDFIGMEDAVKAWRDYLDEIRHDDIKLTRIENNEDHSHLDGRQHGIYNGQRTDTILNVDIHMVNGKIKEVHIEIE”: 1.01; “TEEDEVTEELARNWVKYFLTGDEEQLHRLMDPNARFHTIVGDKHVHRHGRESIVHWIDHVLRHIRIEEVHIRRVHIWNGRVDINNEEIGRVGDKHYRTEVRIHLRIVDGVIRSVDIDIE”: 0.693. In turn, “DEEEDAKKFVLDVWRETLETGDEKLLLELIDPHVRIIIGDKEDHGRETLLHHFREIRFEDFQVRDIRVIGEKIHIHGEHLIRFDGRRVRLEIEIIMTKINGRWLVEEIRIR” returned a protease stability score of 2.58. “TEEHELFEKLARLIIKWLHTGDEERINEYADPNYRTHIGDKTVIGREEREKLIRWLLEHMRIDHIELKDIRVINGKVEIDGKIHGQINGQEVTRHSIIYLIFVDGVIKHISIEWR” showed a protease stability score of 1.35.

Turning to “DEDTHVMEHALREWSHIFHTGDEDRLLELMDPRTRATVNGVDLHGMEEITRLETEIIRSHGMKFRTFLLEDFKTIDGKIHVHSRLNVDINGKERELRVRIIAKKVNGRWVVTKVEVG”, the protease stability score turned out to be 0.952. Regarding “DEDEKRARHALTLLVHSFLTGNFEFTTELLDPHYKLHVGEKTYIGRKAIKEWIREFHERIPNIKLKDITIEHMTWVGEKVVVHSRVEGEVDGKEMFLQVEIIMEKVNGRWIVHSIHMN”, the protease stability score amounted to 2.01. On to “SEDRKLAEILVKITMDILHTGDEEEWLKLLDPHTRIDFDGRDMHGREFFMKVFRDWGIDNIEVHLHDVKVQGDFLDINVSVHINGRKIDHRLIVEKIDGRWIIREFEVR”, for which the protease stability score was 1.58. As to “TEDERLFHETLKIFEHAVQTGDEEELERMLDPNVRSTINGVRLHGRESFRKLFHIIWREIRFESVDVKRIHIQGDKMIWFTRIDGIFNGQRDLREVTIFADKIDGRWIFKEVDVR”, the protease stability score was 2.1.

Take “HRVETEAHHMMKLLEHWLQTGDEEMWKTYADPDVRIDVDGKTLHGRDNFEHVLRMYGIKHRHIRDSHYHFIGDYLHYNLDVEVHFNGKDLKTHFTFQIRKVDGRWELERVHIRVH”: the protease stability score came to 0.941. The sequence “SEEEHDWRRALKIFLESLTTGDPKSITELVDPNARSDINGVDLHGREEWSKEMNRIKNLTIHDFEIEHISIYDGKAEINGHLDFEFDGVRTKIEVHLIFEKVDGKWVIQSRIVK” returned a protease stability score of 0.895. The sequence “DETKEHVHNWMELVVHWYETGDEEEILKNADPNVRTIFNGVDYHGWEHLEEILKKIRHFFKNARVEIERIEIQGDKLILDVNVEINGQRDTLHIHVKVVDGVMKNLEIRHG” had a protease stability score of 1.59.

The sequence “DKEDEEAKRLLEIFITHHLTGDEEHYQTLMDPHARLDFDGRHNVGREKITEFLRRFGADHVHIKHIEVELYNGKLYVRIEVELRIGDKTMDMIWVLQLRKVDGRWHIRRETWILL” had a protease stability score of 0.703. On to “SEEEKLQREMSKRWIEEVFTGNEEVFEQLADPNTIIDINGQHLHGMETFSKWSREHIKKLGWTQFDIKMRDSKVIGNKAKLDLELHVNGKVVKVEVNLEVIDGRIKKIEERHH”, for which the protease stability score is -0.143. Consider “TEDHEIVEDALRLWWTSVHTGDETLMSRLADPDVRLIVGDKHFHGREKFTRTMKELDDEMRFHHLEIKEFELFDGRIKINVRLRGTIGDKHTIFEVNVINLKVNGKWLLKSLEVR”, for which the protease stability score worked out at 1.1. The figure for “SELEEEARKMNERFWRDMITGDFDSLVRLADPHVKVLYGDKFSIGREVFEEHLRHLGIKVSHLRNLDVQGDKVIVHGESKFNGKTFELEIIMRKFDGRWFIETVNLQ” is 0.973; for “SEERHLEELMYKWVRQMIETGDEDLERKLADPHVRSDINGVDLHGREEMIKEIKRLEDWLGIDHREFKTITFINGRIHVHIKLNVNGKDIKSIHIYDVIDGRLKEVSVRFR” it is 1.19. Sequence “SEDERQSEHMNRLIFESLETGDFHKLMRLMDPHARAVVDGREVHGMELLEEILKRIKDELGVTRIRTRIRTERTQGNKADNITEYEIGDKSFTVIIHNQKIDGRWVIHEVRFE” came in with a protease stability score of 1.24.

The sequence “DQREETTNRALHEFIENLITGDEHELLRLLDPNTKMIWNGRENHGWKRAKTVLKEFLERIDVFKDHKLRNMELQGNKAEVEGQVIFEIDGKEVRHDLSLIFLKVDGKWMIESIEIR” returned a protease stability score of 1.34.
